The record followed here is the nanobody polyreactivity screen of Harvey et al. (2022).

The data set is described as follows: yeast display, Sf9 membrane polyspecificity reagent, FACS + sequencing; frameworks hold sequencing errors. Put shortly: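 Nanobodies came from a synthetic yeast display library in Saccharomyces cerevisiae BJ5465, induced with galactose for 36–48 hours and stained for 1 hour at 4 °C with 10% biotinylated, detergent-solubilized Sf9 membrane reagent. Cells were enriched on streptavidin microbeads and then FACS-sorted, with low and high (top ~1%) gates set on anti-HA fluorescence for expression and streptavidin fluorescence for reagent binding. Each polyreactivity label reflects the gate a clone came from. Genes were amplified by colony PCR, sequenced by MiSeq 2 × 250 and filtered by CDR length.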
“QVQLVESGGGLVQAGGSLRLSCAASGFTFAYYAMGWYRQAPGKEREFVAVITWSGGDTYYADSVKGRFTISRDNAKNTVYLQMNSLKPEDTAVSYCAATYWGTRRIYAYGYWGQGTQVTVSS”: the “polyreactivity (PSR sort gate)” value is recorded as “high polyreactivity”.

As for “QVQLVESGGGLVQAGGSLRLSCAASGFTFAYYAMGWYRQAPGKERELVAAISSRGGSTYYADSVKGRFTISRDNAKNTVYLQMNSLKPEDTAVYYCAAEFGLWPYEYGYWGQGTQVTVSS”, the “polyreactivity (PSR sort gate)” value is recorded as “high polyreactivity”. Under “QVQLVESGGGLVQAGGSLRLSCAASGFTFAYYDMGWYRQAPGKERELVAAISQSGGSTYYADSVKGRFTISRDNAKNTVYLQMKSLKPEDTAVYYCNAYAYTQSYEYDYWGQGTQVTVSS” stands “high polyreactivity”; under “QVQLVESGGGLVQAGGSLRLSCAASGFTFAYYTMGWYRQAPGKERELVAAINWSGGSTYYADSVKGRFTISRDNAKNTVYLQMNSLKPEDTAVYYCAAKSYWWATYEYWGQGTQVTVSS”, “high polyreactivity”. Under “QVQLVESGGGLVQAGGSLRLSCAASGFTFAYYTMGWYRQAPGKERELVVVINRSGSTNYADSVKGRFTISRDNAKNTVYLQMNSLKPEDTAVYYCATGVALRYGYWGQGTQVTVSS” stands “low polyreactivity”.

For “QVQLVESGGGLVQAGGSLRLSCAASGFTFDAYTMGWYSQAPGKERELVAAITWSGGRTYYADSVKGRCTISRDNAKTTVYLQLNSLKPEDTALYNCAADSPTSLYEYWGQGTQVTVSS”, the “polyreactivity (PSR sort gate)” value was “high polyreactivity”.

Consider “QVQLVESGGGLVQAGGSLRLSCAASGFTFDENAMGWYRQAPGINYSGASTYYADSVKGRFTISRDNAKNTVYLQMNSLKPDDTAVYYCAAEVVAQMNYWGQGTQVTVSS”, for which the “polyreactivity (PSR sort gate)” value is given as “low polyreactivity”. To “QVQLVESGGGLVQAGGSLRLSCAASGFTFDGYGMGWYRQAPGKERELVAVITSGGSTKYADSVKGRFTISRDNAKNTVYLQMNSLNPEDTAVYYCNVVGGRYLYSAYDYWGQGTQVTVSS” belongs “low polyreactivity”; to “QVQLVESGGGLVQAGGSLRLSCAASGFTFDHNAMGWYRQAPGKERELVARITGTGDSTYYADSVKGRFTISRDNAKKTVYLQMNSLNPEDSADYYCNADRRYDFYDGYGYWGQGTQVTVSS”, “low polyreactivity”; to “QVQLVESGGGLVQAGGSLRLSCAASGFTFDIYGMGWYRQAPGKERELVASITSRSARTNYADSVKGRFRISRDNAMNTVYLQMNSLKPEDSAVYYCAADPYTGYTYYWGQVTQVTVSS”, “high polyreactivity”. With “QVQLVESGGGLVQAGGSLRLSCAASGFTFDKYAMGWYRQAPGKESELVAAISRGGGTKYADSVKGRFTISRDNAKNTVYLQMNSLKPEDTAVYYCVAKFRPDLSRGAYEYWGQGTQVTVSS”, the “polyreactivity (PSR sort gate)” value is recorded as “high polyreactivity”. Under “QVQLVESGGGLVQAGGSLRLSCAASGFTFDLYARGWYRQAPGKERELVAAISSSCGSTYYADSVKGRFTISRDNAKNTVYLQMNSLKPEDTAVYDCARRYLYSSRLVTKYGYGMDYWGQGTQVTVSS” stands “high polyreactivity”; under “QVQLVESGGGLVQAGGSLRLSCAASGFTFDPYAMGWYREAPGKERELVAAISFSGGSTSYADSVKGRFTISRDNAKNSVYFQMNSLKPEDTAVYYCAAYSWLYEGYEYWGQGTQVTVSS”, “high polyreactivity”. Turning to “QVQLVESGGGLVQAGGSLRLSCAASGFTFDPYAMGWYRQAPGKERELVAAISFSGGSTSYADSVKGRFTISRDNAKNTVYLQMNSLKPEDTAVYYCAAYSWLYEGYEYWGLGTQVTVSS”, the “polyreactivity (PSR sort gate)” value was “high polyreactivity”.

For the sequence “QVQLVESGGGLVQAGGSLRLSCAASGFTFDPYAMGWYRQAPGKERELVAAISISGGRTYYADSVKGRFTISRDNAKNTVYLQMNSLKPEDTAVYYCAVAQSHYFGGYGYWGQGTQVTVSS”, the “polyreactivity (PSR sort gate)” value was “low polyreactivity”. Under “QVQLVESGGGLVQAGGSLRLSCAASGFTFDRYAMGWYRQAPGKERELVAAISRSGASTYYADSVKGRFTISRDNAKNTVYLQMNSLKPEDTAVDDCAAKQRTKGDYWGQGTQVTVSS” stands “high polyreactivity”; under “QVQLVESGGGLVQAGGSLRLSCAASGFTFDRYAMGWYRQAPGKERELVAAISVSGGRTYYADSVKGRFTISRDNAKNTVYLQMNSLKPEDTAVYYCAARDHSRSRFGYDYLGQGTQVTVSS”, “high polyreactivity”.

As to “QVQLVESGGGLVQAGGSLRLSCAASGFTFDRYAMGWYRQAPGKERELVAAITSRGGRTYYADSVKGRFTISRDNAKNTVYLQMNSLKPEDTAVYYCNAVYSQSGYFYRFDYWGQVTQVTVSS”, the “polyreactivity (PSR sort gate)” value was “high polyreactivity”.

In the case of “QVQLVESGGGLVQAGGSLRLSCAASGFTFDSNAMGWYRQAPGKERELVAAISKRGGSTYYADSVKGRFTISRDNAKNTVYLQMNRLKPEDTAVYYCAADNYNSGGTRHMYYWGQGSQVTVSS”, the “polyreactivity (PSR sort gate)” value is “high polyreactivity”. Under “QVQLVESGGGLVQAGGSLRLSCAASGFTFDSNAMGWYRQAPGKERELVAAISSSGGSTYYADSVKGRFTISRDNAKNTVYLQMNSLKPEDTAVYYCNARRRTVPYRYDYWGQGTQVTVSS” stands “high polyreactivity”; under “QVQLVESGGGLVQAGGSLRLSCAASGFTFDSYAMGWYRQAPGKERELVAAITSGDSTHYADSVKGRFTISRDNAKNTVYLQMNSLKPEDTAVYYCAASGFPYPYDYWGQGTQVTVSS”, “low polyreactivity”; under “QVQLVESGGGLVQAGGSLRLSCAASGFTFDSYAMGWYRQAPGQERELVPAISSSSSTNYADSVKGRFTISRDNAKNTVYLPLNSLKPEDTAVYYCNADSPEGYRLLDYWGQGTQVTVSS”, “low polyreactivity”. Regarding “QVQLVESGGGLVQAGGSLRLSCAASGFTFDTNVRGWYRQAPGKERELVAAITGPGGSTYYADSVKGRFTISRDNAKNTVYLQMNSLNPEDTAVYYCNRVYYRRRLYDYWGQGTQVTVSS”, the “polyreactivity (PSR sort gate)” value is on record as “high polyreactivity”. To “QVQLVESGGGLVQAGGSLRLSCAASGFTFDVYAMGWYRQAPGKERELVAAIDSGGSTNYADSVKGRFTISRDNAKNTVYLQMNSLKPEDTAVYYCAAPFVGSVVIRRWDEYDYWGQGTQVTVSS” belongs “low polyreactivity”; to “QVQLVESGGGLVQAGGSLRLSCAASGFTFDVYTMGWYRQAPGKEREFVAAISGSGGSTYYADSVKGRFTISRDNAKNTVYLQMNSLKPEDTAVYYCNAGLSRVSHRHRSHSLQGYDYWGQGTQVTVSS”, “low polyreactivity”. Under “QVQLVESGGGLVQAGGSLRLSCAASGFTFDVYTMGWYRQAPGKERELVASITYSGGDTYADSVKGRFTISRDNAKNTVYLQMNRLKPEDTAVYYCNAVVYYYLDEYWGQGTQVTVSS” stands “high polyreactivity”; under “QVQLVESGGGLVQAGGSLRLSCAASGFTFDWNAMGWYRQAPGKERELVAAISSSTGRTYYADSVKGRFTISRDNAKNTVYLQMNSLKPEDTAVYYCAASLGGYGERYYYWGQGTQVTVSS”, “high polyreactivity”. To “QVQLVESGGGLVQAGGSLRLSCAASGFTFDWYAMGWYRPAPGKERELVAAISSGGNTKYADSVKGRFTISRDNAKNTVYLQMNSLKPEDTAVYYCAARLYYSLSYYYWGQGTQVTVAS” belongs “high polyreactivity”; to “QVQLVESGGGLVQAGGSLRLSCAASGFTFDWYAMGWYRQAPGKERELVAAISSGGNTKYADSVKGRFTISRDNAKNTVYLQMNSLKPEDTAVYYCAARLYYSLSYYYWGQGTQVTVSS”, “high polyreactivity”. In the case of “QVQLVESGGGLVQAGGSLRLSCAASGFTFDYYAMGRDIPAPGKERELVAAISRAGSTNYADSVKGRFTISRDNAKNTVYLQMNSLKPEDTAVYYCNKGYHSWSRLSQFGWSYDYWGQGTQVTVSS”, the “polyreactivity (PSR sort gate)” value was “high polyreactivity”.
